These results are taken from US20240174740A1 (EYEPOINT PHARMACEUTICALS, published 2024).

Experiment [1] deals with T1, VEGF (UniProt P15692-4 27-191, limits assumed).
T1 construct: also called vascular endothelial growth factor
The experiment is described as follows: Biacore SPR, scouting at 10 nM analyte; antibody immobilised on CM5 chip, VEGF as analyte. The procedure:
(§1) The assay buffer contained 10 mM HEPES buffer (pH 7.4), 150 mM NaCl, 3 mM EDTA, and 0.05% P20 (polyoxyethylenesorbitan). […] The conjugation buffer contained 10 mM sodium acetate buffer (pH 5). A flow rate of 5 μL/minute was used for capturing ligand. A flow rate of 30 μL/minute was used for kinetic analysis.
(§2) For analysis of binding of the antibodies to VEGF, the antibodies were immobilized on the surface of the chip by direct immobilization using EDC/NHS coupling chemistry on flow cell 2 of the CM5 chip. Unoccupied sites were blocked with 1M ethanolamine. The analyte (VEGF) was flowed over the chip at a single analyte concentration at a time. The binding of analyte to the ligand was monitored in real time to obtain on (kₐ) and off (kd) rates. The equilibrium constant (KD) was calculated from the observed kₐ and kd.
(§3) Chi square analysis was carried out between the actual sensorgram and the sensorgram generated from the BIAnalysis software to confirm the accuracy of the analysis; values of 1-2 were considered accurate and below 1 highly accurate.
On the technique in general: In SPR one partner is held on a chip, and binding of the other changes the refractive index at the surface.

For experiment [2], the target named is T2, poly-histidine tagged HPTP-β extracellular domain (ECD) 1/2 (human, UniProt P23467 23-730, limits assumed).
T2 construct: domain: extracellular domain (ECD) 1/2; Captured on the Biacore chip through goat anti-His antibody; also called His-tagged ligand HPTP-β 1/2 ECD; not shown: poly-histidine tag
T2 sequence (looked up): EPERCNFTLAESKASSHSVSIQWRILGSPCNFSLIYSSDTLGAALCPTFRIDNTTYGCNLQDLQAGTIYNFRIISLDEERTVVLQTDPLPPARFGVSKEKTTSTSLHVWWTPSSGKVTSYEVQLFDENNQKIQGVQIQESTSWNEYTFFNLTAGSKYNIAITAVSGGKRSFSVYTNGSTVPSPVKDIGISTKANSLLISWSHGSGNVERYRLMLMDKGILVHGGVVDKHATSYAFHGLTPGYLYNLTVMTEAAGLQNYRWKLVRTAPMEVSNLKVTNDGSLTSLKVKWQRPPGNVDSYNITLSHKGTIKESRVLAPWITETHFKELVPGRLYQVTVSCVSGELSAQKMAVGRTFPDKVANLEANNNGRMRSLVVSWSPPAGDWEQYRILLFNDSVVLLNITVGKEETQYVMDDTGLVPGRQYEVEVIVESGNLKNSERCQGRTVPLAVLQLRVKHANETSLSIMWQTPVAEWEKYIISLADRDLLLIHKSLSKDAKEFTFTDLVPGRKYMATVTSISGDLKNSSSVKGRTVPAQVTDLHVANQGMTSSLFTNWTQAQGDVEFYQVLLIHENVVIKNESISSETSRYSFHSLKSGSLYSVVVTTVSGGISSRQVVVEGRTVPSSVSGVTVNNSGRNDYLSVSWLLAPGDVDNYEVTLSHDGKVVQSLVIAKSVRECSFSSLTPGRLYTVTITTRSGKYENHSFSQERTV
The experiment is described as follows: Biacore SPR, scouting at 10 nM analyte; His-tagged HPTP-β 1/2 ECD captured by anti-His, antibody as analyte. As to the method: as §1
(§4) For analysis of binding of antibodies to HPTP-β, poly-histidine tagged HPTP-β extracellular domain (ECD) 1/2 was immobilized on a chip surface via anti-His antibodies. Goat anti-His antibody was first immobilized on the surface of the chip by direct immobilization using EDC/NHS (N-ethyl-N′-(3-dimethyl aminopropyl carbodiimide)/N-hydroxy succinamide) coupling chemistry on flow cell 2 of the CM5 (Carboxymethylated dextran coated) chip. Unoccupied sites were blocked with 1M ethanolamine. The His-tagged ligand HPTP-β 1/2 ECD was captured at a response unit (RU) of 50. The analyte (antibody) was flowed over the chip at a single analyte concentration at a time. The binding of analyte to the ligand was monitored in real time to obtain on (kₐ) and off (kd) rates. The equilibrium constant (KD) was calculated from the observed kₐ and kd.
as §3

Experiment [3] has as its target T1, VEGF. The experiment is described as follows: Biacore SPR, full kinetics at 0-10 nM analyte; antibody immobilised on CM5 chip, VEGF as analyte. As to the method: as §1, §2
(§5) Chi square analysis was carried out between the actual sensorgram and the sensorgram generated from the BNAnalysis software to confirm the accuracy of the analysis; values of 1-2 were considered accurate and below 1 highly accurate.

The target of experiment [4] is T2, poly-histidine tagged HPTP-β …. The experiment is described as follows: Biacore SPR, full kinetics at 0-10 nM analyte; His-tagged HPTP-β 1/2 ECD captured by anti-His, antibody as analyte. The procedure: as §1, §4, §5
Experiment [5] shares this target. The experiment is described as follows: Biacore SPR, scouting at 10 nM analyte; His-tagged HPTP-β 1/2 ECD captured by anti-His, antibody as analyte; scouting experiment at a single ligand concentration (Table 46), not full kinetics.
From the text: as §4, §3

T1 sequence (P15692 other isoform, or with tags, fused parts or gaps limits assumed): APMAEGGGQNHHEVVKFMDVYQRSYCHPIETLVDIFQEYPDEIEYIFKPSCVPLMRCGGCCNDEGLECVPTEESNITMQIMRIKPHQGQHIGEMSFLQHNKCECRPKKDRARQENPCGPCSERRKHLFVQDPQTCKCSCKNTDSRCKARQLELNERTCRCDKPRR

B1: HC2:LC1-BRO (bispecific antibody, human IgG4 S228P, kappa)
heavy: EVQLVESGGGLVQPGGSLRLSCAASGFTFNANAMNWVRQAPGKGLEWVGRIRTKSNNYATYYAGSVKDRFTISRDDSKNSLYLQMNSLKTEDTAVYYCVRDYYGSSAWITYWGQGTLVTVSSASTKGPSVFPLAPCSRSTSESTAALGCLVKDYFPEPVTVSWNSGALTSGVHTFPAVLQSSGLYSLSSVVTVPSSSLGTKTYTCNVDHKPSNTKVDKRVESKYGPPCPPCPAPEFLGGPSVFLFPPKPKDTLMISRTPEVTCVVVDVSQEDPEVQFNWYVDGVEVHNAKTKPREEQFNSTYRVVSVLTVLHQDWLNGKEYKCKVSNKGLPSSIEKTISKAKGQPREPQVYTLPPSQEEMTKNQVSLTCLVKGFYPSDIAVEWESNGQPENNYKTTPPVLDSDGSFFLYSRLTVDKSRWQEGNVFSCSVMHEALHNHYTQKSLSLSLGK
light: DVVMTQSPSFLSASVGDRVTITCKASQHVGTAVAWYQQRPGKAPKLLIYWASTRHTGVPSRFSGSGSGTEFTLTISSLQPEDFATYFCQQYSSYPFTFGGGTKLEIKRTVAAPSVFIFPPSDEQLKSGTASVVCLLNNFYPREAKVQWKVDNALQSGNSQESVTEQDSKDSTYSLSSTLTLSKADYEKHKVYACEVTHQGLSSPVTKSFNRGECGGGGSEIVMTQSPSTLSASVGDRVIITCQASEIIHSWLAWYQQKPGKAPKLLIYLASTLASGVPSRFSGSGSGAEFTLTISSLQPDDFATYYCQNVYLASTNGANFGQGTKLTVLGGGGGSGGGGSGGGGSGGGGSEVQLVESGGGLVQPGGSLRLSCTASGFSLTDYYYMTWVRQAPGKGLEWVGFIDPDDDPYYATWAKGRFTISRDNSKNTLYLQMNSLRAEDTAVYYCAGGDHNSGWGLDIWGQGTLVTVSS
For B1, the figures for the Kd (with VEGF [1]; in experiment [2]) were 0.0351 pM and 0.309 nM, respectively.

B2: HC2-BRO:LC1-BRO (bispecific antibody, human IgG4 S228P, kappa)
heavy: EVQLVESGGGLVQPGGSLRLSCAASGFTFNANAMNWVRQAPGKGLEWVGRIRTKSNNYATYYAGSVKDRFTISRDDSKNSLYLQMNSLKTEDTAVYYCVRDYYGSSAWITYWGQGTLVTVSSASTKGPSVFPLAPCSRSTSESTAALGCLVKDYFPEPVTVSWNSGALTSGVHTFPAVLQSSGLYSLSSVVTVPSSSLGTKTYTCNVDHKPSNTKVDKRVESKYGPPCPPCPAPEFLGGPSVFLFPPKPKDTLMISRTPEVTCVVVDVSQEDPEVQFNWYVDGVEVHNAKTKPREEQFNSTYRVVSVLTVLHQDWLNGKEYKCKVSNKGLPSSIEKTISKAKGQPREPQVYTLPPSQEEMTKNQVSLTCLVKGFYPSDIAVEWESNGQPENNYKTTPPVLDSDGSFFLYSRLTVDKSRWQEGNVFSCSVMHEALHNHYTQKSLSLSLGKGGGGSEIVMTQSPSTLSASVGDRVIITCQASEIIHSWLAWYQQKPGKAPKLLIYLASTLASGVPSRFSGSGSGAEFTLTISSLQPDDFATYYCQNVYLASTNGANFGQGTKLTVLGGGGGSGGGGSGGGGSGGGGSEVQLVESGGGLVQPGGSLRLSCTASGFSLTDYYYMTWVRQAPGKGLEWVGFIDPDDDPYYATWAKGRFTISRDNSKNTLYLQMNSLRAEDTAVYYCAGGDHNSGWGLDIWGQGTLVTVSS
light: DVVMTQSPSFLSASVGDRVTITCKASQHVGTAVAWYQQRPGKAPKLLIYWASTRHTGVPSRFSGSGSGTEFTLTISSLQPEDFATYFCQQYSSYPFTFGGGTKLEIKRTVAAPSVFIFPPSDEQLKSGTASVVCLLNNFYPREAKVQWKVDNALQSGNSQESVTEQDSKDSTYSLSSTLTLSKADYEKHKVYACEVTHQGLSSPVTKSFNRGECGGGGSEIVMTQSPSTLSASVGDRVIITCQASEIIHSWLAWYQQKPGKAPKLLIYLASTLASGVPSRFSGSGSGAEFTLTISSLQPDDFATYYCQNVYLASTNGANFGQGTKLTVLGGGGGSGGGGSGGGGSGGGGSEVQLVESGGGLVQPGGSLRLSCTASGFSLTDYYYMTWVRQAPGKGLEWVGFIDPDDDPYYATWAKGRFTISRDNSKNTLYLQMNSLRAEDTAVYYCAGGDHNSGWGLDIWGQGTLVTVSS
As for B2, the Kd (usually the equilibrium constant for the complex coming apart) in the experiment with VEGF [1] was determined as 1.79 pM; in experiment [2], 0.0035 nM.

B3: HC2-AFL:LC1 (bispecific antibody, human IgG4 S228P, kappa)
heavy: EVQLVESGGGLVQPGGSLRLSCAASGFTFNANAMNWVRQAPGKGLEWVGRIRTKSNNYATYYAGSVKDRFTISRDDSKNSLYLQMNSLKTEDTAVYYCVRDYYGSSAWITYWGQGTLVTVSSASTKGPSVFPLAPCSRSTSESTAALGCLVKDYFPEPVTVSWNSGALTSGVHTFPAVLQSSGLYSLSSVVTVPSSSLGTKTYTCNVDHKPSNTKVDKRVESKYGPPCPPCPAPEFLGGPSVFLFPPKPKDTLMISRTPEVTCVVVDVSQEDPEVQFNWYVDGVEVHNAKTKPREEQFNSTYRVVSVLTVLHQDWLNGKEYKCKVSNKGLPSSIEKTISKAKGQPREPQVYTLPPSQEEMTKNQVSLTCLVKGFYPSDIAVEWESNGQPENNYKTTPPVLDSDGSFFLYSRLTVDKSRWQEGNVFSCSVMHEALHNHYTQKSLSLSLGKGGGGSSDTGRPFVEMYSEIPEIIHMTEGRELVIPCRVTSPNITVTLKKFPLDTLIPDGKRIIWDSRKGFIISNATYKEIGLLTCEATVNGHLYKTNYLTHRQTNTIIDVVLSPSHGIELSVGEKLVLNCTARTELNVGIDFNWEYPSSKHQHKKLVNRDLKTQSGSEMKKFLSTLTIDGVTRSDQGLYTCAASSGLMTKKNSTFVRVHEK
light: DVVMTQSPSFLSASVGDRVTITCKASQHVGTAVAWYQQRPGKAPKLLIYWASTRHTGVPSRFSGSGSGTEFTLTISSLQPEDFATYFCQQYSSYPFTFGGGTKLEIKRTVAAPSVFIFPPSDEQLKSGTASVVCLLNNFYPREAKVQWKVDNALQSGNSQESVTEQDSKDSTYSLSSTLTLSKADYEKHKVYACEVTHQGLSSPVTKSFNRGEC
For B3, the Kd in the experiment with VEGF [1] is 350 pM; with VEGF [3], 46.3 pM; in experiment [2], 0.32 nM; in experiment [4], 0.219 nM.

B4: HC2-RAN:LC1 (bispecific antibody, human IgG4 S228P, kappa)
heavy: not shown
light: DVVMTQSPSFLSASVGDRVTITCKASQHVGTAVAWYQQRPGKAPKLLIYWASTRHTGVPSRFSGSGSGTEFTLTISSLQPEDFATYFCQQYSSYPFTFGGGTKLEIKRTVAAPSVFIFPPSDEQLKSGTASVVCLLNNFYPREAKVQWKVDNALQSGNSQESVTEQDSKDSTYSLSSTLTLSKADYEKHKVYACEVTHQGLSSPVTKSFNRGEC
notes: also called HC2-RBZ:LC1; tetravalent bispecific antibody with ranibizumab-derived scFv on the heavy chain C-termini
Take B4: in experiment [5], binding was characterised by a dissociation constant (Kd) of 0.586 pM.

B5: HC2-ABI:LC1 (bispecific antibody, human IgG4 S228P, kappa)
heavy: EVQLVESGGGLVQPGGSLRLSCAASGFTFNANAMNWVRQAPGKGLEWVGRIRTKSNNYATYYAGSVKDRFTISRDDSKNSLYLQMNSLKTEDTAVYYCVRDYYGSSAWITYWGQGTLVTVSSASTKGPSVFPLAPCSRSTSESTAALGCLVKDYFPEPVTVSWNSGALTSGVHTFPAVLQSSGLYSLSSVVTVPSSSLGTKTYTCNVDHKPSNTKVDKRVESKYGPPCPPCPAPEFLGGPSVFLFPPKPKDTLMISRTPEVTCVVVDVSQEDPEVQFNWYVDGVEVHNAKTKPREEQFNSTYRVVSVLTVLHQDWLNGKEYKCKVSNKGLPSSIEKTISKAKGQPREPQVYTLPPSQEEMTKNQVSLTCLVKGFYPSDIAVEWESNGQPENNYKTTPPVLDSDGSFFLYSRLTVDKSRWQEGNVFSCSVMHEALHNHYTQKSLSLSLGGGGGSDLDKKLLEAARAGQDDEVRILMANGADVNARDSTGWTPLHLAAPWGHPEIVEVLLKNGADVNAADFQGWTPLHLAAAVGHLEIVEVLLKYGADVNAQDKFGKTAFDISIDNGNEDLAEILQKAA
light: DVVMTQSPSFLSASVGDRVTITCKASQHVGTAVAWYQQRPGKAPKLLIYWASTRHTGVPSRFSGSGSGTEFTLTISSLQPEDFATYFCQQYSSYPFTFGGGTKLEIKRTVAAPSVFIFPPSDEQLKSGTASVVCLLNNFYPREAKVQWKVDNALQSGNSQESVTEQDSKDSTYSLSSTLTLSKADYEKHKVYACEVTHQGLSSPVTKSFNRGEC
For the molecule B5, the Kd with VEGF [1] came out at 0.11 pM; with VEGF [3] it was 0.04 pM; in experiment [2] it was 0.122 nM; in experiment [4], 0.00103 nM.

B6: HC2-BRO:LC1 (bispecific antibody, human IgG4 S228P, kappa)
heavy: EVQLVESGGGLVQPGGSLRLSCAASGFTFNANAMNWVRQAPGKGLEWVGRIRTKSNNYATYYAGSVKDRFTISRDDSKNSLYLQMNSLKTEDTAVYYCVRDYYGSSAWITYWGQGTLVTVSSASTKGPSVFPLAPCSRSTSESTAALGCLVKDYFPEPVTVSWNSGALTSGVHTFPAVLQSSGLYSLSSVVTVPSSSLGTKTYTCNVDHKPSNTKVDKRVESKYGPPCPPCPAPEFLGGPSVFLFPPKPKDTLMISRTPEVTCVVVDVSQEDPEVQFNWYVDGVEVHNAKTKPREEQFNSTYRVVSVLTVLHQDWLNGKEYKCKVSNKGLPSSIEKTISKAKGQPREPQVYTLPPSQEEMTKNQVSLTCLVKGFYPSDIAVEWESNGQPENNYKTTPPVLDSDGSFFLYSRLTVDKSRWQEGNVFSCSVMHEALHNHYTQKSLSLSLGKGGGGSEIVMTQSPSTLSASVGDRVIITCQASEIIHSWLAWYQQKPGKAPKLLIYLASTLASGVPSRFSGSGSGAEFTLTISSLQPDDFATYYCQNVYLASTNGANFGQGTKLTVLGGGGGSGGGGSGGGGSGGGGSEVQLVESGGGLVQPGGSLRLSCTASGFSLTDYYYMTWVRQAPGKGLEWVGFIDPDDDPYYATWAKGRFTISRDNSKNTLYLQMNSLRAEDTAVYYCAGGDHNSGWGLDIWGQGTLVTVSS
light: DVVMTQSPSFLSASVGDRVTITCKASQHVGTAVAWYQQRPGKAPKLLIYWASTRHTGVPSRFSGSGSGTEFTLTISSLQPEDFATYFCQQYSSYPFTFGGGTKLEIKRTVAAPSVFIFPPSDEQLKSGTASVVCLLNNFYPREAKVQWKVDNALQSGNSQESVTEQDSKDSTYSLSSTLTLSKADYEKHKVYACEVTHQGLSSPVTKSFNRGEC
For B6, the equilibrium dissociation constant (Kd) in the experiment with VEGF [1] was determined as 0.112 pM; with VEGF [3], 0.218 pM; in experiment [2] it was 0.325 nM; in experiment [4], 0.154 nM.

B7: HC2:LC1-ABI (bispecific antibody, human IgG4 S228P, kappa)
heavy: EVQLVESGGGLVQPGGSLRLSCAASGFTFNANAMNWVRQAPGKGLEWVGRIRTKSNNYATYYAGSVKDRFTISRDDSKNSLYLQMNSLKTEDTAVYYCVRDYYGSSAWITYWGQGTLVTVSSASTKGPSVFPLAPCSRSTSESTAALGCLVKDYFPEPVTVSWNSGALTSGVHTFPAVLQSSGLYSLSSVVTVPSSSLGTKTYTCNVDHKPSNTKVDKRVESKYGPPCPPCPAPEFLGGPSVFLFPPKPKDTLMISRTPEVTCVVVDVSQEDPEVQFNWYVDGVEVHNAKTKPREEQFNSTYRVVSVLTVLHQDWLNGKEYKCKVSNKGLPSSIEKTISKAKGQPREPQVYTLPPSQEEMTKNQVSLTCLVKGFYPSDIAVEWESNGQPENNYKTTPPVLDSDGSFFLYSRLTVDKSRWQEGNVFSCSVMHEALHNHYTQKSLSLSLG
light: DVVMTQSPSFLSASVGDRVTITCKASQHVGTAVAWYQQRPGKAPKLLIYWASTRHTGVPSRFSGSGSGTEFTLTISSLQPEDFATYFCQQYSSYPFTFGGGTKLEIKRTVAAPSVFIFPPSDEQLKSGTASVVCLLNNFYPREAKVQWKVDNALQSGNSQESVTEQDSKDSTYSLSSTLTLSKADYEKHKVYACEVTHQGLSSPVTKSFNRGECGGGGSDLDKKLLEAARAGQDDEVRILMANGADVNARDSTGWTPLHLAAPWGHPEIVEVLLKNGADVNAADFQGWTPLHLAAAVGHLEIVEVLLKYGADVNAQDKFGKTAFDISIDNGNEDLAEILQKAA
notes: The expressed entry minus its signal peptide is used here
Regarding B7, the Kd was found to be 519 pM in the experiment with VEGF [1] and 0.061 nM in experiment [2].

B8: HC2-ABI:LC1-ABI (bispecific antibody, human IgG4 S228P, kappa)
heavy: not shown
light: DVVMTQSPSFLSASVGDRVTITCKASQHVGTAVAWYQQRPGKAPKLLIYWASTRHTGVPSRFSGSGSGTEFTLTISSLQPEDFATYFCQQYSSYPFTFGGGTKLEIKRTVAAPSVFIFPPSDEQLKSGTASVVCLLNNFYPREAKVQWKVDNALQSGNSQESVTEQDSKDSTYSLSSTLTLSKADYEKHKVYACEVTHQGLSSPVTKSFNRGECGGGGSDLDKKLLEAARAGQDDEVRILMANGADVNARDSTGWTPLHLAAPWGHPEIVEVLLKNGADVNAADFQGWTPLHLAAAVGHLEIVEVLLKYGADVNAQDKFGKTAFDISIDNGNEDLAEILQKAA
As for B8, the values for the Kd (with VEGF [1]; in experiment [2]) were 680 pM and 0.205 nM, respectively.

B9: HC2:LC1-AFL (bispecific antibody, human IgG4 S228P, kappa)
heavy: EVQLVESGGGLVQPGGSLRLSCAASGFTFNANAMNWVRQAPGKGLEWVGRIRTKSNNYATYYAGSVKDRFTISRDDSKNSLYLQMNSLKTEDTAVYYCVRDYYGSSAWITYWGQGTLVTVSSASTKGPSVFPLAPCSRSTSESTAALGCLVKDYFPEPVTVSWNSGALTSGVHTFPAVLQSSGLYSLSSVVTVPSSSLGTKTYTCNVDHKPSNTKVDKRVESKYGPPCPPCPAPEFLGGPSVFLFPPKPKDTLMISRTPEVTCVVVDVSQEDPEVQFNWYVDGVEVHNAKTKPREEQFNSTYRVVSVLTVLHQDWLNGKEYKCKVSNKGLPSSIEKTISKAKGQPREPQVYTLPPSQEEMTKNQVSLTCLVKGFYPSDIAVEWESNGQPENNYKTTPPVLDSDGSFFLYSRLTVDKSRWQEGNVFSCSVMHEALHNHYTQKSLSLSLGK
light: DVVMTQSPSFLSASVGDRVTITCKASQHVGTAVAWYQQRPGKAPKLLIYWASTRHTGVPSRFSGSGSGTEFTLTISSLQPEDFATYFCQQYSSYPFTFGGGTKLEIKRTVAAPSVFIFPPSDEQLKSGTASVVCLLNNFYPREAKVQWKVDNALQSGNSQESVTEQDSKDSTYSLSSTLTLSKADYEKHKVYACEVTHQGLSSPVTKSFNRGECGGGGSSDTGRPFVEMYSEIPEIIHMTEGRELVIPCRVTSPNITVTLKKFPLDTLIPDGKRIIWDSRKGFIISNATYKEIGLLTCEATVNGHLYKTNYLTHRQTNTIIDVVLSPSHGIELSVGEKLVLNCTARTELNVGIDFNWEYPSSKHQHKKLVNRDLKTQSGSEMKKFLSTLTIDGVTRSDQGLYTCAASSGLMTKKNSTFVRVHEK
Consider B9, for which the values for the equilibrium dissociation constant (Kd) (in the experiment with VEGF [1]; in experiment [2]) were 825 pM and 0.467 nM, respectively.

B10: HC2-AFL:LC1-AFL (bispecific antibody, human IgG4 S228P, kappa)
heavy: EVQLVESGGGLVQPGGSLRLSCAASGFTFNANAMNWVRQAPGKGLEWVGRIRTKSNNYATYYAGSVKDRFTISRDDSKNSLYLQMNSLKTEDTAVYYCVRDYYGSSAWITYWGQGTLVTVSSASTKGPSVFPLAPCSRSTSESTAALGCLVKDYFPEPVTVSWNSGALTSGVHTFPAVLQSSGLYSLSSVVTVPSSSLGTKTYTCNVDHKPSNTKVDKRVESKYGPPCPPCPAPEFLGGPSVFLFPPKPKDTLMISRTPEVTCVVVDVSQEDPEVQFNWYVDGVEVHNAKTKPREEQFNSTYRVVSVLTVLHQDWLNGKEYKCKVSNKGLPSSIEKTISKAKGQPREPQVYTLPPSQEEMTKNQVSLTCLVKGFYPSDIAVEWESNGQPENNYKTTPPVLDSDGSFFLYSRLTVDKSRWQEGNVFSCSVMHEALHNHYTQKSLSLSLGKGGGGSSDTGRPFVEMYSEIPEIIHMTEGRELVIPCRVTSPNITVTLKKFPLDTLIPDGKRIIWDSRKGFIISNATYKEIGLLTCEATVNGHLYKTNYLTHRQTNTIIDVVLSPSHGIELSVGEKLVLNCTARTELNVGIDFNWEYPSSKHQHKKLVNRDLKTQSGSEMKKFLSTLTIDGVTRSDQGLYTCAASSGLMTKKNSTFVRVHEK
light: DVVMTQSPSFLSASVGDRVTITCKASQHVGTAVAWYQQRPGKAPKLLIYWASTRHTGVPSRFSGSGSGTEFTLTISSLQPEDFATYFCQQYSSYPFTFGGGTKLEIKRTVAAPSVFIFPPSDEQLKSGTASVVCLLNNFYPREAKVQWKVDNALQSGNSQESVTEQDSKDSTYSLSSTLTLSKADYEKHKVYACEVTHQGLSSPVTKSFNRGECGGGGSSDTGRPFVEMYSEIPEIIHMTEGRELVIPCRVTSPNITVTLKKFPLDTLIPDGKRIIWDSRKGFIISNATYKEIGLLTCEATVNGHLYKTNYLTHRQTNTIIDVVLSPSHGIELSVGEKLVLNCTARTELNVGIDFNWEYPSSKHQHKKLVNRDLKTQSGSEMKKFLSTLTIDGVTRSDQGLYTCAASSGLMTKKNSTFVRVHEK
Consider B10, for which the Kd amounted to 557 pM with VEGF [1] and 0.0694 nM in experiment [2].
